In US12286661B2, “Methods for making high intensity sweeteners” (Firmenich Incorporated, priority 2018, dated 2025):

System: cucurbitadienol
Experiment: 11-OH cucurbitadienol production from cucurbitadienol by CYP450s expressed in S. cerevisiae, LCMS
Format: cell-based
Settings: S. cerevisiae strain producing cucurbitadienol and expressing SgCPR; LCMS peak area of product vs. internal reference; hits over vector only control
Description: DNA was obtained through gene synthesis either through Genescript, IDT, or Genewiz. For some of the cucurbitadienol synthases, cDNA or genomic DNA was obtained through 10-60 day old seedlings followed by PCR amplification using specific and degenerate primers. DNA was cloned through standard molecular biology techniques or through yeast gap repair cloning (Joska et al., 2014) into one of the following overexpression vectors: pESC-Ura, pESC-His, or pESC-LEU. Gene expression was regulated by one of the following promoters; Gall, Gal10, Tef1, or GDS. Yeast transformation was performed using Zymo Yeast Transformation Kit II. Yeast strains were grown in standard media (YPD or SC) containing the appropriate selection with 2% glucose or 2% galactose for induction of heterologous genes. Yeast strains were grown in shake flask or 96 well plates at 30° ° C., 140-250 rpm. When indicated, lanosterol synthase inhibitor, Ro 48-8071 (Cayman Chemicals) was added (50 ug/ml). Yeast samples producing mogrol precursors, mogrol and mogrosides were processed through one of the following: • Cucurbitadienol and 11-OH Cucurbitadienol: Samples cell pellets were lysed (Yeast Buster) followed by ethyl acetate extraction, drying, and resuspension in methanol. • ·Mogrol and Mogrosides: Samples cell pellets were lysed in 50% ETOH, incubated at 80° C. for 30 min, filtered, dried and resuspended in MeOH for LCMS screening.
For analyzing 11-OH cucurbitadienol, the LCMS method included the use of C8 2.1×100 mm column, gradient 60 to 90% B for 6 minutes at flow rate of 0.55 ml/min. For the enzyme screening, the LCMS method used was a Waters Acquity UPLC Protein BEH C4, 2.1×100 mm, 1.7 μm column and a gradient of 40% to 80% over 5 minutes, 95% B from 5.1 to 5.6 minutes with a flow rate of 0.55 ml/min, and ESI source positive mode single ion monitoring of 425.4.
Additional CYP450s were expressed in S. cerevisiae strain producing cucurbitadienol and expressing SgCPR. DNA and protein sequences for the CYP450 enzymes are shown in SEQ IDs 871-890 and 1024-1049 (see Table 1).

Molecule	Peak Area 11-OH CCB
SEQ ID NO. 1042/1043: CYP450 enzyme (DNA/protein SEQ ID NO) producing 11-OH cucurbitadienol (protein, listed as Siraitia grosvenorii) MAIFFFFFFFLLVVSVVFVFLFLRASRFRRVRLPPGSLGLPLIGETLQLISAYKTENPEPFIDERVRRFGAVFTTHLFGEPTVFSADWETNRFILQNEEKLFECSYPGSISNLLGKHSLLLMKGNLHKRMHSLTMSFANSSIIRDHLLLDVDRLIRLNLDSWTGRIFLMEEAKKITFELAVKQLMSFDRCEWTQNLMKEYLLVIEGFFTVPLPLLSTTYRRAIRARTKVAEALGLVVRQRRKESDAGKRKNDMLGALLAAEDALSDDQIVDFLLALLVAGYETTSTTMTLAVKFLTEAPLALTQLQEEHEQIKARKKEADQHLQWNDYKSMPFTQCVVNETLRVANIISGVFRRAMTDINIKGYTIPKGWKVFASFRAVHLDHDHFKDARSFNPWRWQQNTSGSTVNAFTPFGGGPRLCPGYELARVELSVFLHHFVTQFSWVPAEDDKLVFFPTTRTQKRYPINVMRKNETRQRKDSLDSRHMKGQESSFDM	0.3326
SEQ ID NO. 1036/1037: CYP450 enzyme (DNA/protein SEQ ID NO) producing 11-OH cucurbitadienol (protein, listed as Lagenaria siceraria) MELIINNWLLILSCVGFALGLGVLKRLNNLYYAIKLGKKWDEVPPGDLSWPLLGSTLSFIKYFTLGPPHNFIAQFSNRYGKVDMYKTHIFGRASIIVCKPEICRQVLTDETKFAPGYPTTMTSLFGRRSLHRVSKVEHRKLRRLTTTPISSHAALELYIDHIEHTVINGLEEWSSMEKPLELLTVIKELTFKIIWNIFMGSTPMGSIAIREMEALYNDISLGFFCLPINFPGFYFHKSLKARKRLHEILQCIVNEKRLVKKSKGETWEAKDMMDLMIEVRDEDGEGMDDETIVDLIFGKLFAGQETSAFTTMWAILFLTNNPHVFQKAKVIDETLRVSSITFATFREAMTDVKINGKIIPKGWKVILWLRELNMDEKLHTSPQEFNPSRWDNFIGNPGAFTPFGLGVRMCPGRDLAKLEISIFLHYFLLNYKVEQLNPQCQLDYLPIPHPKDKCLARVLKVA	0.3833
SEQ ID NO. 1024/1025: CYP450 enzyme (DNA/protein SEQ ID NO) producing 11-OH cucurbitadienol (protein, listed as Citrullus lanatus) MWTILLGLATLAIAYYIHWVNKWKDSKFNGVLPPGTMGLPLIGETIQLSRPSDSLDVHPFIQSKVKRYGPIFKTCLAGRPVVVSTDAEFNHYIMLQEGRAVEMWYLDTLSKFFGLDTEWLKALGLIHKYIRSITLNHFGAESLRERFLPRIEESARETLHYWSTQPSVEVKESAAAMVFRTSIVKMFSEDSSKLLTGGLTKKFTGLLGGFLTLPLNLPGTTYNKCIKDMKEIQKKLKDILEERLAKGTGNDEDFLGQAIKDKESQQFISEEFIIQLLFSISFASFESISTSLTLILKFLADHPQVVKELEAEHEAIQKARADPDGPITWEEYKSMTFTLNVISETLRLGSVTPALLRKTTKEIQIKGYTIPEGWTVMLVTASRHRDPEVYKDPDTFNPWRWKELDSITVQKNFMPFGGGLRHCAGAEYSKVYLCTFLHILFTKYRWTKLKGGKIARAHILRFEDGLHVKFTPKE	1.231
SEQ ID NO. 1038/1039: CYP450 enzyme (DNA/protein SEQ ID NO) producing 11-OH cucurbitadienol (protein, listed as Siraitia grosvenorii) MLSFLGFAAFFFCFFLIHSLFKLFSAARRKLPLPPGSMGWPYMGETLQLYSQDPNVFFASKKKRYGPIFKSHILGYPCVMLSSPEAVKFVLVTKAHLFKPTFPASKERMLGKNAIFFHQGDYHAKLRRLVLRTFMPEAIRIMVPSIESIAKNTVQSWEGQLINTFQEMKMFAFEVSLLSIFGKDEALYFEDLKRCYYILEKGYNSMPINLPGTLFHKAMKARKELAHILNKILSTRREMKPDHNDLLGSFMGQKEGLTDEQIADNVIGLIFAARDTTASVLTWILKYLGENPSVLQAVTAEQEAIMKQKRSAHDNLTWGDTKNMPITSRVIQETLRVASVLSFTFREAVEDVEFDGYLIPKGWKVLPLFRNIHHSPEIFPQPDKFDPSRFEVAQKPNTYMPFGSGTHSCPGNELAKLEMLVLLHHLTTKYRWSVVGAQEGIQYGPFALPHNGLPIRISLKK	0.3528
SEQ ID NO. 1044/1045: CYP450 enzyme (DNA/protein SEQ ID NO) producing 11-OH cucurbitadienol (protein, listed as Siraitia grosvenorii) MDELKWFVLIPATFFLVVFVFEVLKRLNGWYYATKLWKIWDELPPGDMGWPLLGSTLSYINDFTAGQPQNFIRTFSNRYGKADMYKTHILGRASIIICTPEICRQVLTNEDKFKPSLPGNMKILSGRKSLMQVSKAEHRRLRRLTMAPISGHAALEMYISHIQATVVGGLEEWASIQRPVELVTEIKRLTFKVIWNIFMGSTSLDSSMGAMEALFSDVAVGFLSLPINFPGFYFHKSLKARKRLIEILQSIINEKRLVKKSKGESWEAKDMMDLMIEVKDEDGEELDDETIIDLIFGKLFAGHETSAFTAMWAVLFLTDHPQIFQKAKEEQEEIIRRRPSTQKGINLSDYKQMKFLSQVIDETLRVSCITSLLFREATADVEINGKIIPKGWRVLPWLGMLYMDENLFPSPQEFNPSRWDNFVPKPGAFIPFGVGNRFCPGSDLAKLEISIFLHYFLLNYKVERLNPKCHLTCLPFPHPTDKCLARVHKVA	0.2664
SEQ ID NO. 1048/1049: CYP450 enzyme (DNA/protein SEQ ID NO) producing 11-OH cucurbitadienol (protein, listed as Siraitia grosvenorii) MWLLLIGAIVVLSFTRWLYGWKNPKCNGKLPPGSMGFPLLGETLQFFSPNTSSDVPPFIRKRMDRYGPIFRTNLVGRPLIVSTDSDLNYFIFQQEGQLFQSWYPDTFTEIFGRQNVGSLHGFMYKYLKNMVLHLFGPESLRKMIPEVEAAATRRLRQWSSHNTVELKDETASMIFDLTAKKLISYDLESSSENLRDNFVAFIQGLISFPLNVPGTAYHKCLQGRKRAMRMLKNMLQERRANPRKQQIDFFDFVLEELEKDGTLLTEEIALDLMFVLLFASFETTSLALTAAIKFLLDNPHVLEELTAEHEGILKRRENADSGLTWGEYKSMTFTFQFINETVRLANIVPGIFRKALRDIQFKGYTIPAGWAVMVCPPAVHLNPEKYIDPLAFNPWRWEKSELNGASKHFMAFGGGMRFCVGTDFTKVQMAVFLHCLVTKYRFKAIKGGNIIRTPGLQFPNGFHIQITEK	0.2083
SEQ ID NO. 1046/1047: CYP450 enzyme (DNA/protein SEQ ID NO) producing 11-OH cucurbitadienol (protein, listed as Siraitia grosvenorii) MELWLWLLGASVGAYVFVFGILRNLNQWRFVTRHRNRYNLPPGDMGWPLIGTLLPFLQAFRSGRPDSFIHYFASTYGKIGMYKTYLFGSPSVIVCLPEVCRHVLMNDEQFVFGYSKATRILTGSKALNTVPKAEHRRLRRLIASLISGNDALSVYIGHVEGIVINCLQEWGSMKKPVEFLSEMKTVAFKVLLHIFIGSTSAAFIDKMEKLYTDFHLGFMSTPIDLPGTTFSRALKARNELIRIFENVLKEKRANLKSKEGENRKKDMTDLLLEVRDEDGQGLDDGCIIDLLIGFFFAGHETSAHSIMRAIMFLSENPETLLKAKAEQEQIVKARPADDQHKGLTMKEIKQMEYLSKVIDETLRKTSLAFTLSRETKVDVNLNGYTIPKGWKILVWTRAVHMDPEIYESPQKFDPSRWDNSKRRAGSFIPFGAGMRLCPGIDLSKLEIAIFLHYFIYGGFRLERVNPNCPENYLPLARPTDNCLARVVRDS	0.2276
SEQ ID NO. 1040/1041: CYP450 enzyme (DNA/protein SEQ ID NO) producing 11-OH cucurbitadienol (protein, listed as Siraitia grosvenorii) MEVELTNFWVMILAAVLGFCVFVFGFLRRFNDLWTMVKLGKKVYKTLPPGDMGWPLIGSSLWFYKAFSASGDPDSFIKHLRSRYGRVGMYKTHLFGKPAVIVTDPEICRRVYSDDKHFVMSYPKSVKILGTGSLSRIDHRITHRFMAAPINGSEALARYVGFIEQVVVRGLEEWSSMRKPIELLHEIKRLTFRIIIHVFMGSALDPHIPKLEKLYAELSAAVFVAFAIDVPGSTYHRALKAKEEIQNILRPVIEEKRRIIEKNEEMEDKCQLDAVIKGKNGKGEKIFDNDAIIDMLLGLLYAGHHTSAHGTMWALIQLLEHPQVYEKAKEEQELIMKQRPSTQKGLIFNEIKQMTYLVKVINEMLRRVSIVFANFREAATDVNINGYTIPKGWVVPVWIKGVHMDPQIYPNPEEFNPSRWDTHTPKPGAFIPFGFGNRFCPGNELAKLEITILLHHFLLKYRWERVNPKASITSVPMPSPIDQCLAKITAIPSS	0.3523
